Test results: patent US20150359861

Target: Nicotinamide phosphoribosyltransferase (Nampt) (UniProt P43490)
Chain of UniProt P43490 (P43490 whole entry, looked up): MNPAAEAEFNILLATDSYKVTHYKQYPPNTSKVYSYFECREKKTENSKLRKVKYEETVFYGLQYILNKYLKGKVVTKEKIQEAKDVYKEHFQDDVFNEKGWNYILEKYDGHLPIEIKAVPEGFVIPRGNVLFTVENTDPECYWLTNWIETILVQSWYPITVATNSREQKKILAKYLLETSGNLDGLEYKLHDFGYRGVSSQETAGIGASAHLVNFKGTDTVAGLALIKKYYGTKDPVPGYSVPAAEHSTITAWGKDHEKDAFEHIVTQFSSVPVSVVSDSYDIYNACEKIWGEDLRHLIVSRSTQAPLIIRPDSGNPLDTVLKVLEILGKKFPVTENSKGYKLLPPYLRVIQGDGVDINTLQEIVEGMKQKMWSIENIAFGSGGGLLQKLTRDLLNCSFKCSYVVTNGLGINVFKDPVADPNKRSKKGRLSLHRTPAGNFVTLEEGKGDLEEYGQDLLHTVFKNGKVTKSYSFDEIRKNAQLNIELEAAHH

## purified recombinant human Eno1
  Nampt activity (Cyclex Nampt activity assay kit on anti-Nampt immunoprecipitates of lysates from myotubes treated with 500 or 1000 ug/ml Eno1 for 48 hours): Eno1 treatment increased Nampt activity
